For experiment [1], the target named is T1, human MerTK endogenously expressed on cells (SK-MEL-5 cells; human macrophages) (human, UniProt Q12866 21-999).
T1 sequence: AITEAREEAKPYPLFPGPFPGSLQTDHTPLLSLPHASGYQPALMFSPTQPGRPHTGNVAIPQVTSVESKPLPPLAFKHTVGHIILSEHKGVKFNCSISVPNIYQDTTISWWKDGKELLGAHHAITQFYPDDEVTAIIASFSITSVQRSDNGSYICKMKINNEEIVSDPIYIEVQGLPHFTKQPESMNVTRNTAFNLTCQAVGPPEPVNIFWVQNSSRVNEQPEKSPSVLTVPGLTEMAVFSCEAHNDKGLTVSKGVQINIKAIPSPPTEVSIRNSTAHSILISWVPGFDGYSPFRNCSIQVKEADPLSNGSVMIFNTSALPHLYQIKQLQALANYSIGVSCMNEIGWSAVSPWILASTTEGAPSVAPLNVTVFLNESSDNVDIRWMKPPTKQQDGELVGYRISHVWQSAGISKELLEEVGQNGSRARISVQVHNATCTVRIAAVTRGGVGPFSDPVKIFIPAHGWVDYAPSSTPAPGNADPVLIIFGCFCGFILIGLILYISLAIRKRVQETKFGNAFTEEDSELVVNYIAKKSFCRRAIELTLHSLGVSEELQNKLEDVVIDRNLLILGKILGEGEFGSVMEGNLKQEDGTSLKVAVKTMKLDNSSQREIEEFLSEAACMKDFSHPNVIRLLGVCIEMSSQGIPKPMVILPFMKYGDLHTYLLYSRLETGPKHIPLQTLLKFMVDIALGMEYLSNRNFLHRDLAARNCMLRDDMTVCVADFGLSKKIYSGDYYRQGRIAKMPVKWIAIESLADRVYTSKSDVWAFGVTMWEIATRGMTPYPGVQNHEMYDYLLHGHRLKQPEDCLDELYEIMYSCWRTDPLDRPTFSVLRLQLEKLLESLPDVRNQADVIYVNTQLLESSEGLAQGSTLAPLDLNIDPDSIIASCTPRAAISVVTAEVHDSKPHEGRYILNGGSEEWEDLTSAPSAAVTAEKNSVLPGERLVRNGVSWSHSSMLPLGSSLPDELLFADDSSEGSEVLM
The experiment is described as follows: cell-based or functional assay.

Experiment [2] addresses T1, human MerTK endogenously expressed on …. The experiment can be described thus: flow cytometry on SK-MEL-5 cells, Prism fit. The method, then: To determine whether recombinant anti-human MerTK antibodies of the present disclosure bind to human MerTK endogenously expressed on SK-MEL-5 cells and to CHO cells overexpressing mouse MerTK (CHO-muMerTK OE cells), the following experiments were performed. SK-MEL-5 cells and CHO-muMerTK OE cells were plated at 40,000 cells/well. Anti-MerTK antibodies were titrated to a final concentration range of between 66.6 nM to 4 pM and then added to the cells. After 30 min on ice, cells were washed and then stained with APC-conjugated mouse anti-human Kappa antibody (Southern Biotech Cat #9230-11, Birmingham, Ala.) and a viability die (Life Technologies) in the presence of Fc block solution on ice for 30 minutes, and then washed twice with cold FACS buffer (2% FBS in PBS). Cells were fixed with 4% paraformaldehyde in PBS. Stained cells were acquired on a BD FACS Canto II cytometer and the mean fluorescence intensity (MFI) was calculated with FlowJo software and K value was calculated with Prism software. […] A lower Kd value reflects higher binding of antibody to cells.

Experiment [3] deals with T2, Recombinant human MerTK human Fc Chimera protein (R&D systems, Cat #391-MR-100) (human, UniProt Q12866 26-499, limits assumed).
T2 construct: Bought; also called recombinant human MerTK protein; MerTK-Fc
T2 sequence: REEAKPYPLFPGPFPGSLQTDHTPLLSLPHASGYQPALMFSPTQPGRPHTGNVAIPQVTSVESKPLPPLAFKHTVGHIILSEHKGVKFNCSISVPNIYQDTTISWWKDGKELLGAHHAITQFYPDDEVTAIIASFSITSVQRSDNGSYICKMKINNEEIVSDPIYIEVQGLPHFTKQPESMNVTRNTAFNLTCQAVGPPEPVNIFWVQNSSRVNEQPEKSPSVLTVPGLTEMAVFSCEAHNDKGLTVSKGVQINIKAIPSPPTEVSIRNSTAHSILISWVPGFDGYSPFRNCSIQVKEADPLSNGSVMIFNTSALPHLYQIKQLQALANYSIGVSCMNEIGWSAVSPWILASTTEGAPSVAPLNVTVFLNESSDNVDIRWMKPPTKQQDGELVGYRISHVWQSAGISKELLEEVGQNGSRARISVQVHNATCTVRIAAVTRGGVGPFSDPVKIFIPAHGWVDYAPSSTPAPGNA
The experiment is described as follows: competition ELISA, His-Gas6 on captured MerTK-Fc. The method, then: Rabbit anti-human IgG polyclonal antibody (Jackson ImmunoResearch, Cat #309-005-008) was captured to a high-protein binding plate at 2 μg/ml 4° C. overnight. After washing with 0.05% Tween20 in PBS three times, 5% BSA in PBS was added for 1 hour. Recombinant human MerTK human Fc Chimera protein (R&D systems, Cat #391-MR-100) was added at 2 μg/ml for 1 hour and the plates were then washed. Anti-MerTK antibodies were titrated to final concentration range of between 66.6 nM to 4 pM and then 40 μl of serially diluted antibody and 40 μl of His tag-conjugated recombinant Gas6 protein (R&D systems, Cat #885-GSB-050) at 3 μg/ml or His tag-conjugated recombinant ProS protein (R&D systems, Cat #9489-PS-100) at 20 μg/ml. After a further incubation for 1 hour, plates were washed and incubated for 1 hour with HRP-conjugated anti-6×His tag antibody (Abcam, Cat #ab1187). Plates were then washed and an HRP substrate (TMB) was used to develop the plates. After sufficient color change was observed, the reaction was stopped by adding 50 μl 2N H₂SO₄ and the OD was measured using a spectrophotometer (BioTek).
From these experiments, IC50 values [nM] were determined using OD450 values obtained from the dose-response curves analyzed with Prism software. Table 14 and Table 15 show IC50 values determined for anti-MerTK antibody blocking of Gas6 ligand binding and ProS ligand binding to MerTK. […] Dashes indicate lack of significant blocking; “n.a.” indicates data not available.

Experiment [4] concerns the target T2, Recombinant human MerTK human Fc …. The experiment is described as follows: competition ELISA, His-ProS on captured MerTK-Fc. Put shortly: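 MerTK-Fc (2 μg/ml) captured on plate-bound anti-human IgG was exposed to anti-MerTK antibodies (66.6 nM-4 pM final) together with His-Gas6 at 3 μg/ml or His-ProS at 20 μg/ml for 1 h. Bound ligand was detected with HRP-anti-His and TMB. IC50 (nM) was derived from OD450 dose-response curves.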
For orientation: An ELISA detects its analyte on a solid surface through an enzyme-linked reagent.

B1: MTK-17 (antibody, human IgG1, V domains shown)
VH: QIQLVQSGPELKKPGETVKISCKASGYTFTNFGMNWVKQAPGKGLKWMGWINTYTGEPTYADDFKGRFAFSLETSASTAYLQINNLKNEDTATYFCSRGAVLRAGAMDCWGQGTSVTVSS
VL: DIQMTQSSSYLSVSLGGRVTITCKASDHINNWLAWYQQKPGNAPRLLISGATSLETGVPSRFSGSGSGKDYTLSITSLQTEDVATYYCQQYWSTPRTFGGGTKLEIK
As a reminder, the Kd is the free concentration of one partner at which half of the binding sites on the other are occupied at equilibrium, for simple one-to-one binding. Higher therefore signals weaker binding. The IC50 is the concentration needed to halve the response being measured. With B1, the “Gas6-mediated pAKT activity, average IC50, human M2c macrophages” value (from here on “Gas6-mediated pAKT activity”) in experiment [1] is 3.42 nM. Besides, the Kd in experiment [2] was 12.7 nM. The values for the half-maximal inhibitory concentration (IC50) in experiment [3] and in experiment [4] were 14.5 nM and 8.35 nM, respectively.

B2: MTK-20 (antibody, human IgG1, V domains shown)
VH: QIQLVQSGPELKKPGETVKISCKASGYTFTNYGMTWVKQAPGKGLKWMGWINTYTGEPTYADDFKGRFALSLETSASTAYLQINNLKNEDTATYFCARGGGRLGLRPLDYWGQGTTLTVSS
VL: DIQMTQTTSSLSASLGDRVTISCRASQDINNYLNWYQQKPDGTVKLLIYYTSRLHSGVPSRFSGSGSGTDYSLTISNLEQEDIATYFCQQGNTLPWTFGGGTKLEIK
Regarding B2, the “Gas6-mediated pAKT activity” value in experiment [1] is 1.48 nM. Also, in experiment [2], the Kd is 0.11 nM. The figures for the IC50 in experiment [3] and in experiment [4] were 4.96 nM and 5.16 nM, respectively.

B3: MTK-18 (antibody, human IgG1, V domains shown)
VH: QIQLVQSGPELKKPGETVKISCKASGYTFTHYGMTWVKQAPGKGLKWMGWINTYTGEPTYADDFKGRFAFSLETSASTAYLQINNLKNEDTATYFCARGGGQLGLRPLDYWGQGTTLTVSS
VL: DIQMTQTTSSLSASLGDRVTFSCRASQAISNYLNWYQQKPDGTVKLLIYYTSRLHSGVPSRFSGSGSGTDYSLTISNLEQEDIATYFCQQGNTLPWTFGGGTKLEIK
Take B3: the “Gas6-mediated pAKT activity” value in experiment [1] is 1.3 nM. For the same molecule, the dissociation constant (Kd) in experiment [2] came to 0.38 nM. Besides, the figures for the IC50 in experiment [3] and in experiment [4] were 4.22 nM and 4.76 nM, respectively.

B4: MTK-03 (antibody, human IgG1, V domains shown)
VH: DVQLQESGPGLVKPSQSLSLTCSVTGYSITSGYYWNWIRQFPGNTLEWMGYMSFDGDNKFNPSLKNRISITRDTSKNQFFLRLNSVTTEDTATYYCARGGYNYGSTEANWGQGTLVTVSA
VL: QIVLTQSPAIMSAFPGEKVTITCSASSSVNYMHWFQQKPGTSPKLWIYSTSNLASGVPARFSGSGSGTSYSLTISRMEAEDAATYYCQQRSSYPFTFGSGTKLEIK
For B4, in experiment [1], the “Gas6-mediated pAKT activity” value is 0.019 nM. Moreover, binding in experiment [2] was characterised by a dissociation constant (Kd) of 2.64 nM. For the same molecule, the IC50 in experiment [3] amounted to 8.53 nM; in experiment [4] it was 3.65 nM.

B5: MTK-07 (antibody, human IgG1, V domains shown)
VH: DVQLQESGPGLVKPSQSLSLTCSVTGYSITSGYYWNWIRQFPGNTLEWMGYMSFDGDNKFNPSLKNRISITRDTSKNQFFLRLNSVTTEDTATYYCARGGYNYGSTEANWGQGTLVTVST
VL: QIVLTQSPAIMSAFPGEKVTITCSASSSVTYMHWFQQKPGTSPKLWIFSTSNLASGVPARFSGSGSGTSYSLTISRMEAEDAATYYCQQRSSYPFTFGSGTKLEIK
As for B5, in experiment [1], the “Gas6-mediated pAKT activity” value worked out at 0.371 nM. In addition, in experiment [2], the Kd turned out to be 3.21 nM. In addition, the values for the 50% inhibitory concentration (IC50) in experiment [3] and in experiment [4] were 7.97 nM and 3.27 nM, respectively.

B6: MTK-16 (antibody, human IgG1, V domains shown)
VH: LIQLVQSGPELKKPGETVKISCKASGYTFTNHGMNWVKQDPGKGLKWMGWINTYTGEPTYADDFKGRFVFSMETSASAAFLQINNLKNEDTATYFCARKGVTAARYFDYWGQGTTLTVSS
VL: DIVMTQSPKFMSTSVGDRVSITCKASQNVRTAVAWYKKKPGQSPKALINLASNRHTGVPDRFTGSGSGTDFTLTISNVQSEDLADYFCLQHWNYPLTFGGGTKLEIK
For the molecule B6, the “Gas6-mediated pAKT activity” value in experiment [1] is 7.74 nM. In experiment [2], this molecule displayed a Kd of 1.66 nM. Also, the IC50 in experiment [3] worked out at 6.32 nM; in experiment [4], 8.59 nM.

B7: MTK-15 (antibody, human IgG1, V domains shown)
VH: QIQLVQSGPELKKPGETVKISCKASGYTFTNYGVHWVKQAPGKGLKWMGWINTYTGEPTYADDFKGRFAFSLETSASTAYLQINNLKNEDMATYFCARGNRYAYMDYWGQGTSVTVSS
VL: QIVLSQSPAILSASPGEKVTMTCRASSSVSYMHWYQQKSGSSPKPWIYATSNLASGVPARFSGSGSGTSYSLTISRVEAEDAATYYCQQWSSNPRTFGGGTKLEIK
As for B7, in experiment [1], the “Gas6-mediated pAKT activity” value is 2.8 nM. In experiment [2], this molecule displayed a Kd of 0.19 nM. Also, the IC50 in experiment [4] was determined as 4.2 nM.

B8: MTK-11 (antibody, human IgG1, V domains shown)
VH: QVQLKQSGPGLVQPSQSLSITCTVSGFSLTDYGVHWVRQSPGKGLEWLGVIWSSGTTDYNEAFISRLSISKDNSKSHVFFKMNSLQAIDTAIYYCARKGHDPYAMDYWGQGTSVTVSS
VL: QIVLTQSPAIMSASLGERVTMTCTASSSISSSYFHWYQQKPGSSPKLWIYSTSNLPSGVPARFSGSGSGTSYSLTISSMEAEDAATYYCHQYYRSPLTFGAGTKLELK
Regarding B8, the “Gas6-mediated pAKT activity” value in experiment [1] amounted to 2.63 nM. In addition, in experiment [2], the affinity, expressed as Kd, was 3.54 nM. Also, the IC50 in experiment [4] came out at 24.2 nM.

B9: MTK-12 (antibody, human IgG1, V domains shown)
VH: QVQLQQSGPQLVRPGASVKISCKASGYSFTSHWMHWVKQRPGQGLEWIGMIDPSDGESRLNQKFKDKATLTVDKSSSTAYMQLSSPTFEDSAVYYCARGIYYYGITYAMDYWGQGTSVTVSS
VL: QIVLTQSPAIMSASPGEKVTMTCSASSSVSYMYWYQQKPRSSPRLLIYDTSNLASGVPVRFSGSGSGTSYSLTISRMEAEDAATYYCQQWSSYPLTFGAGTKLELK
With B9, the “Gas6-mediated pAKT activity” value in experiment [1] was 1.28 nM. In experiment [2], this molecule had a dissociation constant (Kd) of 0.009 nM. For the same molecule, the results for the IC50 in experiment [3] and in experiment [4] were 26 nM and 3.36 nM, respectively.

For the origin of these results see US20210261685A1 (Alector, published 2021).
